Results taken from patent US20060246071A1 (AstraZeneca / MedImmune, published 2006).

T1: recombinant human Angiopoietin-2 (human, UniProt O15123 19-496)
T1 construct: also called Ang-2; rhAng-2
T1 sequence: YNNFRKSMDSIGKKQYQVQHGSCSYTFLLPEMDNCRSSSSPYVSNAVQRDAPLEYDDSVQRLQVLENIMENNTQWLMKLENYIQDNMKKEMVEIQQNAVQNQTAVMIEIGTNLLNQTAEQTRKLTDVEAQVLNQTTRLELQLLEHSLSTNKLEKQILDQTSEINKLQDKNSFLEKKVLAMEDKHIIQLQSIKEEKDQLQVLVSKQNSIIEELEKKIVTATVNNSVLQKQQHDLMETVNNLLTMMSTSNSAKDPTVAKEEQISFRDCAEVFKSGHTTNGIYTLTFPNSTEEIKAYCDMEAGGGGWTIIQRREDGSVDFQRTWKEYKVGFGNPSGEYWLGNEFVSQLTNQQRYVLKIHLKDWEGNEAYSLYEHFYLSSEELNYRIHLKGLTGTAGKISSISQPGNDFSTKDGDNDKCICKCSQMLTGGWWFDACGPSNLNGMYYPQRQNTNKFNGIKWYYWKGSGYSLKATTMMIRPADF

T2: mouse Angiopoietin-2 (mouse, UniProt O35608 19-496)
T2 construct: Secreted into the supernatant of HEK293F/293T cells transfected with the full-length open reading frame of 496 amino acids (GenBank BC027216); also called mAng-2; mouse Ang-2
T2 sequence: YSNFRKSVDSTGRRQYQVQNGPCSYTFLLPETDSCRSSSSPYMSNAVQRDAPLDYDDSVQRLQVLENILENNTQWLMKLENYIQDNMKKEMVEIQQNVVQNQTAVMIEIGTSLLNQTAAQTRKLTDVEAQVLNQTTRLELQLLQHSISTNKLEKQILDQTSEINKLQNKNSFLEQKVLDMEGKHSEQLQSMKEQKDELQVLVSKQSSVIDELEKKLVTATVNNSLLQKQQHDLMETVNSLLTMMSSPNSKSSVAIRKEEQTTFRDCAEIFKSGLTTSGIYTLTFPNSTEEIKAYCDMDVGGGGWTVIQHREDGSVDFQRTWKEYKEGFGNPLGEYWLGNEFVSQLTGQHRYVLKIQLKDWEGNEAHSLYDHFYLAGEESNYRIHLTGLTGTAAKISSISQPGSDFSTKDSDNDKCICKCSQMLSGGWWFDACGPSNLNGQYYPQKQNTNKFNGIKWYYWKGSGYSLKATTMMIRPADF


Columns and labels:
[1] = molecular target: T1, recombinant human Angiopoietin-2; test: competition ELISA, Ang-2 on coated Tie2/Fc
Description: 96-well Nunc Immplates™ were coated with 100 μl of recombinant human Tie2/Fc fusion protein (R&D Systems, Inc., Cat. No. 313-TI-100) at 4 μg/ml by incubating overnight at 4° C. The plates were washed four times using Phosphate Buffer Saline (PBS) with a Skan™ Washer 300 station (SKATRON). The wells were blocked by 100 μl of ABX-blocking buffer (0.5% BSA, 0.1% Tween, 0.01% Thimerosal in PBS) for 1 hour.
The plates were incubated at room temperature for two hours before the unbound molecules were washed off. […] After washing twice, the bound Streptavidin was detected by HRP substrate (R&D Systems, Cat. No. DY998). The plates were incubated for 30 minutes before 450 stop solution (100 μl/well, BioFX, Cat #BSTP-0100-01) was added to terminate the reaction. The light absorbance at 450 nm was determined by a Spectramax Plus reader.
Each concentration of the mAb was tested in duplicate. The concentration-response relationship was found by curve fitting using Graphpad Prism™ graphic software (non-linear, Sigmnoid curve). The maximal inhibition (efficacy) and IC₅₀ (potency) were calculated by the software.

mouse Angiopoietin-2 [2] = molecular target: T2, mouse Angiopoietin-2; test: direct ELISA on plates coated with conditioned medium of HEK293F/mouse Ang-2 transfectants, detection with anti-human Fc-HRP
Description: The plates were incubated at 4° C. overnight, followed by washing four times using Phosphate Buffer Saline with a Skan Washer 300 station (SKATRON). The wells were blocked by 100 μl of ABX-block buffer (0.5% BSA, 0.1% Tween, 0.01% Thimerosal in PBS) for 1 hour. […] The mAbs and each of their dilutes were tested in duplicate. […] To set up the detecting chromagenic reaction, 100 μl of TMB substrate (TMB-microwell, BioFX, Cat. No. TMSK-1000-01) was added after washing the wells three times using PBS. The plates were incubated for 30 minutes before 650 stop solution (100 μl/well, BioFX, Cat. No. BSTP-0100-01) was added to terminate the reaction.

mouse Angiopoietin-2 [3] = molecular target: T2, mouse Angiopoietin-2; test: competition ELISA: mAb titrated with mouse Ang-2 supernatant on plates coated with human Tie2/Fc; blocked partner: human Tie2/Fc
Description: (§1) For this purpose, an ELISA plate was coated with 4 μg/ml of hTie2/Fc (R&D Systems, Inc.) at 100 μl/well, and the wells were blocked as routine at 4° C. overnight.
(§2) Each concentration of the mAb was tested in triplicate. […] OD650 was determined 30 min after the HRP substrate was added.

[4] = molecular target: T1, recombinant human Angiopoietin-2; test: competition ELISA: mAb titrated with recombinant human Ang-2 on plates coated with human Tie2/Fc; blocked partner: human Tie2/Fc
Description: as §1, §2

Row | Binder | Efficacy (ratio of bound Ang-2 with mAbs (30 µg/ml) versus without mAbs) [1] | also measured
1 | mAb 3.3.2 (antibody, V domains shown, Variable regions only; hybridoma-derived fully human IgG kappa; also called 3.3.1; x3.3) VH: EVQLVESGGGLVQPGGSLRLSCAVSGFTFSSYWMSWVRQAPGKGLEWVANIKQDGSEKYYVDSVKGRFTISRDNAKNSLYLQMNSLRAEDTAVYYCARDQGIAVAGPFDYWGQGTLVTVSS VL: EIVMTQSPATLSVSPGERATLSCRASQTVSSDLAWYQQKPGQAPRLLIYGASIRATGIPARFSGSGSGTEFTLTISSLQSEDFAVYSCQQYYNWWTFGQGTKVEIKR | 0.388 | 
2 | mAb 3.31.2 (antibody, V domains shown, Variable regions only; hybridoma-derived fully human IgG kappa; also called x3.31*) VH: EVQLVESGGGLVQPGGSLRLSCAASGFTFSSYWMSWVRQAPGKGLEWVANIKQDGSDKYYVDSVKGRFTISRDNAKNSLYLRMNSLRAEDTAVFYCARDMGSGWFDYWGQGTLVTVSS VL: EVVMTQSPATLSVSPGERATLSCRASQSVGSNLAWYQQKPGQAPRLLIYGASTRATGIPARFSGSGSGTEFTLTISSLQSEDFAVYCCQQYNHWWTFGQGTKVEIKR | 0.375 | 
3 | mAb 3.19.3 (antibody, V domains shown, Variable regions only; hybridoma-derived fully human IgG kappa; also called x3.19) VH: QVQLVESGGGVVQPGRSLRLSCAASGFTFTNYGMHWGRQAPGKGLEWVAVISHDGNNKYYVDSVKGRFTISRDNSKNTLYLQMNSLRAEDTAVYYCAREGIDFWSGLNWFDPWGQGTLVTVSS VL: EIVLTQSPGTLSLSPGERATLSCRASQSITGSYLAWYQQKPGQAPRLLICGASSWATGIPDRFSGSGSGTDFTLTISRLEPEDFAVYYCQQYSSSPITFGQGTRLEIKR | 0.395 | EC50 (read off the curve) (mouse Angiopoietin-2 [2]): ~1 µg/mL; IC50 (read off the curve) (mouse Angiopoietin-2 [3]): ~2 µg/mL; IC50 (read off the curve) [4]: ~0.7 µg/mL
4 | mAb 5.28.1 (antibody, V domains shown, Variable regions only; hybridoma-derived fully human IgG kappa; also called x5.28) VH: EVQLVESGGIVVQPGGSLRLSCAASGFTFDDYTMHWVRQTPGKGLEWVSLISWDGGSTYYADSVKGRFTISRDNSKNSLYLQMNSLRTEDTALYYCAKDIDIAVAGTGFDHWGQGTLVTVSS VL: EIVMTQSPATLSVSPGERATLSCRASQSVTSNLAWYQQKPGQAPRLLIYGALIRATGIPARFSGSGSGTEFTLTISSLQSEDFAVYYCQQYNNWPFTFGPGTKVDIKR | 0.389 | 

Second part, led by results:

Row | Efficacy (ratio of bound Ang-2 with mAbs (30 µg/ml) versus without mAbs) [1] | Binder | also measured
5 | 0.403 | mAb 5.88.3 (antibody, V domains shown, Variable regions only; hybridoma-derived fully human IgG kappa; also called x5.88*) VH: EVQMVESGGGLVQPGGSLRLSCAASGFTLRSYWMSWVRQAPGKGLEWVANIKEDGSEKYHVDSVKGRFTISRDNAENSLFLQMSSLRAEDTAVYYCARDMEASAGLFDYWGQGTLVTVSS VL: EIVMTQSPATLSVSPGERAILSCRASQSISSNLAWYQQKPGQAPRLLIYGASTRATGIPARFSGSGSGTEFTLTISSLQSEDFAVYYCQQYNYWWTFGQGTKVEIKR | 
6 | 0.364 | mAb 5.101.1 (antibody, V domains shown, Variable regions only; hybridoma-derived fully human IgG kappa; also called x5.101) VH: not shown VL: EIVMTQSPATLSVSPGERATLSCRASQSLISNLAWYQQKPGQAPRLLIFGASTRATGIPARFSGSGSGTEFTLTISSLQSEDFAVYYCHQYNNWWTFGQGTKVEIKR | 
7 | 0.232 | mAb 5.103.1 (antibody, V domains shown, Variable regions only; hybridoma-derived fully human IgG kappa; also called x5.103*) VH: QVQLVQSGAEVKKPGASVKVSCKASGYTFTGYYLYWVPQAPGQGLEWMGWISPNSGGTNYAQKFQGRVTMTRDTSISTAYMELSRLRSDDTAVYYCARDQVIAVAGPFDYWAQGTLVTVSS VL: not shown | 
8 | 0.384 | mAb 5.86.1 (antibody, V domains shown, Variable regions only; hybridoma-derived fully human IgG kappa; also called x5.86) VH: QVQLVQSGAEVKKPGASVKVSCKASGYTFTGYHMYWVRQAPGQGLEWLGWINPNSGGTNYAQKFQGRVTMTRDTSISTAYMELSRLRSDDTAVYYCVRDQGIAAAGPFDYWCQGTLVTVSS VL: DIRMTQSPSSLSASVGDRVTITCRASQRISTYLNWYQQKPGKAPKFLIYAASSLQSGVPSRFSGSGSGTDFTLTISSLQPEDFATYYCQQSYTTPFTFGPGTKVDIKR | 
